Biological target: T1, 人DLL4抗原 (human, UniProt Q9NR61 27-524, limits assumed)
T1 construct: Coated at 1 μg/mL; also called Delta like 4
Assay: ELISA, DLL4 antigen coated on plate, HRP secondary antibody, OD450-OD630

T1 sequence (Q9NR61 27-524 limits assumed): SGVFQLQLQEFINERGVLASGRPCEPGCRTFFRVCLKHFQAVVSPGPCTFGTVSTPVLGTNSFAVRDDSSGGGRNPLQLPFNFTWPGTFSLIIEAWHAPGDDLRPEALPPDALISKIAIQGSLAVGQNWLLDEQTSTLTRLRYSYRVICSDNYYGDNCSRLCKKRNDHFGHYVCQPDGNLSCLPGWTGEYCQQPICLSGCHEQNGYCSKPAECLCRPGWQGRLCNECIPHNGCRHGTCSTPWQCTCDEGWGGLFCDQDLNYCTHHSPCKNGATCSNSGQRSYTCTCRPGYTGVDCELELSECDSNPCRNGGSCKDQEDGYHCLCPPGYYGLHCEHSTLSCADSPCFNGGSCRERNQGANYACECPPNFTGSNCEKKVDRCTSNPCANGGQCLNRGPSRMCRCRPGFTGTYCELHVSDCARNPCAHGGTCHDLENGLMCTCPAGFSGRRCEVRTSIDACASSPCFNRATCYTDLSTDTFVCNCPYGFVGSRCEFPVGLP

B1: 抗人DLL4人源化抗体H3L2 (antibody, V domains shown)
VH: QVQLVQSGAEVKKPGSSVKVSCKASGYTFSGYWMQWIKQAPGQGLEWIGAIYPGDGDTRYTQKFKGRATLTADKSTSTAYMELSSLRSEDTAVYYCAGGNFFFDYWGQGTLVTVSS
VL: EIVITQSPDFQSVTPKEKVTITCSVSSSISSSYLHWYQQKPDQSPKPWIYGTSNLASGVPSRFSGSGSGTDYTLTINSLEAEDAATYYCQQWSSSPLTFGQGTKLEIKV
EC50: 49.2 nM
